According to patent US20230242673A1:

Biological target: LDLR expressed in HepG2 cells (UniProt P01130)
Test: cell-based or functional assay

Sequence of LDLR expressed in HepG2 cells (P01130 22-860 limits assumed): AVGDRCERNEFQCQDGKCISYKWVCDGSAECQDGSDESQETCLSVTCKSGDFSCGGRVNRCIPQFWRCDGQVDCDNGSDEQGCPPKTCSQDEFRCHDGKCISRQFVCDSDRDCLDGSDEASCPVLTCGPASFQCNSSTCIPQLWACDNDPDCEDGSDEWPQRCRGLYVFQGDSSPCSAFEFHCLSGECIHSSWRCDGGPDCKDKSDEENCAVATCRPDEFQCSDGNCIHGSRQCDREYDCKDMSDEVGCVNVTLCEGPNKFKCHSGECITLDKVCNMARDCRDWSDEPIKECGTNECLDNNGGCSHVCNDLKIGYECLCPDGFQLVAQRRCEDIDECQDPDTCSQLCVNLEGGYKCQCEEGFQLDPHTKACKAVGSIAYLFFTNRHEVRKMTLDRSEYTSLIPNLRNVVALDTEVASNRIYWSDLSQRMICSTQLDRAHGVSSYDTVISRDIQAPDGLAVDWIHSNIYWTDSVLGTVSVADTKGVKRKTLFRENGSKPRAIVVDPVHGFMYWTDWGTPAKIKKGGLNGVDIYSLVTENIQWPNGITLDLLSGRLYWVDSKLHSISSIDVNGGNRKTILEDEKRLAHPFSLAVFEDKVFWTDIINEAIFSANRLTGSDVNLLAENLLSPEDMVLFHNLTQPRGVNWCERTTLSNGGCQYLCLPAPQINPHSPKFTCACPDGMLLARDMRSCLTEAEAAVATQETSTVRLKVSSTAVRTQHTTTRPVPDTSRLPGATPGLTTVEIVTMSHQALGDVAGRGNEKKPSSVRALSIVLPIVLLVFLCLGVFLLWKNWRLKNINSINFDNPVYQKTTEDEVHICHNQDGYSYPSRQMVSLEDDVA

- LDL uptake by HepG2 cells, fluorescence value of LDL BODIPY (485 Ex/535 Em): 80
Substance: PCSK9 Ag (human PCSK9 protein, Acro Cat No: PC9-H5223) (from UniProt Q8NBP7 31-692)
